Assay results reported in a protein production outcome set (Wang et al. 2014).

Experiment: label from the status in PepcDB records

Sequence | protein production
MSINSNSVFNNSGRVSAAGIASVVGLAVLSAVAVTGGAVKVLVISWVAFAAMALGAWLGARADETNPYRLVWGYGLASGAMVTSAAMFLVPQAMGLGGQAGAARIGGVGIAAGLVTGYGTHTIGHRLTHIETSFDMTTIAIAAHALSAGLVIGLVYASMPDLGILLGLAIVSHKGPAGYAAARRLGRSDKSATALLLPAAGVGLTAIPSALLPVPESALLNAVIFGFAAGIFLHVAMDFLPNCEAGSEIDEVCELHDHSHDLLDELRTHAVGSTVVGAAVIVLAWVAI | failed
DGIVELKTVPFDQLVVYEQKLFPAERERFLRLWIKQPNSAAYAVVRDGQIVGYGVIRQSHTGLRIGPLNADNEQIAEQLLLALLAFRSDALVFLDVPDANLEAIKLVQRYGMKPVSEVARMYNKEIPNLLINRVFAVTSLEVG | failed
AIASQFDPDKFKQEQKARWNQGARSTWTLWKQTQVEDTPAKFFLGLVPIRPGVKVLDLACGSGETSLQVAQLVSSHLPSDSKDAKIVCVDISEEMLRVLSQRAQELGLSSVVETCCEDAENINFGTHYFDMVMSQFGVMFLPHLPEDLANIRKMMKPGSLFCCVVWGEEKDCHIFYAARSVVSPPPPPPGTPVSYGTKEKVMEALRKAEFSDVKAVEFQVVHETKDAEEYITLMSGVNQWLEKSLGEKGSGPWQKLVEYCNNSYRTSRGTLQFPNVCVGITAIA | failed
MYKTIIMPVDVFEMALSDKAVRHAEFLAQQDGVIHLLHVLPGSASFTMSRFTADLRRFEEHLQHEAETRLQTMVSHFSIDPSRIKLHVRFGSVRDMVNELASEINADVVVIGSRNPSISTHLLGSNASSVIRHAHIPVMVVR | failed
MKLTDRLLKIASLVSDGKKIADIGTDHGYIPVYLLKEGKVPFAVLADVNKGPLDNAHKEVIQNNLLDKVDLRLGSGIEILEIGEVEEVIIAGMGGILISELLEAKKEVAHNVEKLILQPMQAQEELRYYLLNNGYEILEEVLVREDFRIYEIIVA | failed
MYFTEFLTVALIHLLAVASPGPDFAVVVRESVTHGRRAGTWTALGVGCAIFLHVGYSLLGIGLIVSQSIVLFNALKWLAAAYLLYIGYKALRAQPAKPAADDLHKEAGVRTARGAFTSGFVTNGLNPKATLFFLSLFTVVINPHTPLAIQAGYGVYLAVATAVWFCLVAMLFSQQRVRAGFARMGHWFDRTMGAVLIAIGVKLAFTEMH | failed
TNWASGEDDHVVARAEYDFVAVSDEEISFRAGDMLNLALKEQQPKVRGWLLASLDGQTTGLIPANYVKILGKRRGRKTIE | not failed
MYTYSLLNLSHCRRQTRKKRKTDHTEGFLMEETKPKTVEDVETVDVYTAKGFLSTGHRYLDVRTNEEFAKSHVEEALNIPYMFKTDEGRVINPDFLSQVASVCKKDEHLIVACNAGGRGSRACVDLLNEGYDHVANMGGGYSAWVDAGFAGDKPPEDLKIACKFRPKEN | failed
MSTLIQDLKAQAGIFESDADQVHGLLAEFPDPGALLHAAEAVREEGYRHFDTHSPFPIHGMDEAMGLGNASAVGVLTFFGGITGCVVAYLLQWWTAAVDYPLNISGKPFFAVEPSVPIMFELTILFAAFGTVAGMFALNGLPRPYNPLFYSDRFKGATDDRFFLHIAASDDEFDVEDSAAMLQRLGAHHLELVKDDGTVDA | failed
MEGSIASRARLPRATQMAVATLDTNPRMRRPPREPAPPPSPLHQLVVTLATGKWLLLAVALLGGILAGLAGFTRPVLFEAATQIIIDAPSTGTANATATAQDSLDSSIDDHLTMLSSQAHLRRVLTALRQPQAADAAGKSGISAVPPTSGSFVGNLLSRVWSKGGPAAESPEAVDAAALKTLRSGMRVGQELRSRVITIGFTDTSPVRAALVANTFAQVYIEDLVQKRRASDQRELESLVASLPQVQRDLVDATDRLETYRLTHGAVDQSAANNAANETAELGRQIFLSKANLSASESRLRHIEDLRKAGAPVSAIAEEIGSPVLTDLVARQSGAAADGDLGTAINREIEQGIARIAAEANVYRAQVAALEDRKRVRDAAVADTASQLSGLRALEPQVTIVTQHYNELLGRQQDLIRRIAAPSPGVAVLSTAWPPSNPITLPRIFLVPPGMIVFGLMAAVFVLVRNMFNQTLRSEAEAEAELGIPCVGLLPKVSGLHARQLRHLVLVQQNSPFSRAATSLLVTAAPTQGKGQPPHMILVTSSILDDGKTELAWSLALAATRLGGRVLFLDLDRKDARLTNEFRGEFGTIKAHNSFGDYVSERCVLQDAITRMPEIGIDLMAAPGPSEDLLTLLSTVDKSQFTEELLSVYDVVIINGPLGLGGPETRLLKRWADAVLFAVRWAKTRRSIARGVLESLRAGGSVTVPIGSVLTQVNLKRYAGSRLDDNADLLLERV | failed
MQHFKTKIEHFQIYIYFSAIILGILIGTNFPGISSILETLVAICIAILMFSMFSQIPFFELQKRVLNLKFVTALIIANFVILPILVYFLISIFNISSSAILIGLFLVLLTPCIDYVIVFTALGKGNAQYMLISTPILFVLQILLLPLYLTMFLDKSILTIIDIEPFIHSFFTFIIIPLLLALTLQLLSKKYYVMSQTLKATSWLPELFMSLVLFTVVGSQINKIANDLSVVVKVAPIYIIFMLIAPFIGYFTGKLFHLKPSILRTLAFSTSTRNALVVLPLALSLPDQWVTITTTVIITQTLIELIGELFYIKMIPSLIKS | failed
MSFADLGLSDKVLQAVTTAGYTEPTPIQAQAIPHVLARRDVLGIAQTGTGKTAAFTLPMLTMLETGRARARMPRTLILEPTRELAAQVEENFERYGTNHKLNVALIIGGVSFADQDAKLTRGTDVLIATPGRLLDHFERGKLLLTGVELLVIDEADRMLDMGFIPDIERIVKMVPFTRQTLFFSATMPPEIERLADMFLHNPQRVEVARPASTATTIEQRLVATGAEGHEKRKVLRHLIRSASELQNGIIFCNRKRDVAQLQRSLTSHGFNAAALHGDMDQRARMAALDGFRSGEVPLLVASDVAARGLDIPAVSHVFNFDVPHHPEDYVHRIGRTGRAGRSGQAFTLASRSDERSLSAIESLIGQPIAWLDGDLASVSDEVEGDEPRRRRGSRRAKETKGGEETKSGGRSTERSAAPASESPRSENRSRGGRRPAAERSRADAPRRDPVREPEPVAVVPSAPPAPPRELAREPVRSAPERARGERRPPRRDEDGETPVGLGSHVPAFLLKPTGFGKSK | failed
MRQYPRWYYDEFKQSGADYADIEEVNTYDLRMQNLRNIENESNRIRELLKLKKSDVVLEIGTGTGELALNISAHCKQVIAIDVSKMMINFARRKAESQNKTNIQFYNAGFLTYENHDELFDVIVTQLALHHLPDYWKMMALRRIYGMLKEEGKFYLHDVVFPSSIQNYDSYFDKIITDLEISAGDKIAEETEIHIKEEFSTLDWVMEGLLTGVGFYIEYIKYDGFMASYICKK | failed
MWRYRSPEMPLTESFLDLMLIPIIGFGLAVILLIGFFLLYQEVGIFKNLKFLVIRKNNPFFILALFCLITGLALGLVGYWGILEPKLGAADLQALRRNLIILSLLLFGVTFRQYLFDLIKPVTTMAIWRKIGTFNYKNRIAILTYVLLGLIALAWMAPMASTKIIFSINDHTSHIGYIVQGRMALEEGQFPLRVAPLENFGFRYPGFQFYSQLPYFFGAIIYKFLTPTNPYTAYKILLWSALWLGGIFIYRVGFFFTRSQIAAILGGVTYMSAPYFLNNVHARGAFTEAIAQGILAIVLFYAIQTFYYPHYRHLILGALAWCALGLTHIITFVYTTIFIALLGAIFLVKNKPNHWQKGITYISLSYIWAWLLALYFLAPVALESGSLAIRRQIQAINPFNTTDITPIANLLAPNSLPHQPTELGIAPTYGFHPAVGWILLAGFGTVIYFVFAGKSLPRRLWRSQPWLIPLLSVFILALFLTWSPVNIWNLLPRQLWVTQFTFRFLTHVMWSGALLTTLAIILIFRERLRSRHLILGILIIVIASRPWLPIPRGTVTVEELLQDPLFRYSGALDYLYRLPNKAVPVNTKAQSAVEKIYGKAELQLLHPDWIPGYLSWDVFINGPLPIDVDIPYPAWPETEKPTLVLQGRVPMDKIKSQANLIVFVDQQPLTSIPLTQEELKVKVPFTDVKFAGNAFELKFIVEGETTDGNPLYIRMNHLYFDDFSAANTLLPVHATKEMCNQKGVVTNCPVEMPAEAGTVQLPILYYPAMQQVVVDNQPVKGFFTNYRDFNLLSLNLSPGKHQIQVKFTGLIWANFISLLAWLTLIITAIALKFYPRKPEQTIFK | failed
MGVSFKISKVGRKFRPKISTELATPDSPKAIVLSGKPKATDDSNIGDVSGFSKPSLPDISPDHEVSFILSLYPNGYSIGKTSEAMQQISFRDVPKVLHPYDRAAEGLLSAIEAGRLPGDILEDIPCKFVDGVVICEVHDYRKHTSSQVSPVINKLRLKMSLENVVKDIPSMSDNSWTYGDLMVIMVARGL | failed
MAEARPDSLTRSRAAKPAGEGAAFSPLYRQIKELLVQSLDRGEWKPGELIPSEIDLAARFQVSQGTVRKAVDELAAEHLLLRRQGKGTFVATHHEARVRYRFLRLAPDEEGEGGRAESRILECRRLRAPAEIARALELRAGETVVTIRRQLSMNHMPTVIDDLWLPGTHFRGLTLELLTASKAPLYGLFESEFGVSMVRADEKLRAVAASPEIAPLLGVEPGRPLLQVDRISYTYGDRPMEVRRGLYLTDHYHYRNSLN | not failed
MPTVKLTKNITIMTGSPNTLIYDNRVVIDLGGKNSSVDINAEVQLATHGHADHIAGLLKKDAKIRYLPKEDYWSLTLMGRRAMIYGCSSKDSDIFTFDYVKENIESIDIEVRTSEIEVIKLPGHTPGHSGYIVDNVLYAGDAFFGEKVLEGFSVPFYTDFWTALESLNKVKELAKSVNNIVISHGPVYTNKNKMVSILESNIIYAQNLIGKILDMLSNNELTVEEIVVKLKQDLTPSNVLLNSVVVRSILFGLENIEYNVSQKGLVFRRRVH | failed
MTDNETPAEDQVGDRVAGLLLAAGGGRRLGGRPKALLEHRGHPLVEHAVEVLRTAGCARVHVVLGARAADVRARAALDGCTLVDNPDWEQGMGSSLRAGLGSLAATGARAALVCLVDQPGIGAAATARVRARFRDETSLASAAYAGVRGHPVLLGAAHWAGVAATASGDRGARAYLREHEAEIALVECGDVARPYDIDTEADLVHLELEHHHHHH | not failed
MALNLKQRLEQKFEEEIRFFKGMVSQPKKVGAIVPTSSITAKKMASVINPHSGLPVLELGPGTGVITKAILARGIKPESLTAIEYSTDFYNQLLRSYPGVNFVNGDAFDLDATLGEHKGQMFDSVISAVPMLNFPMAARIKLLDELLKRVPHGRPVVQISYGPISPIVAQPHLYHIRHFDFIVRNIPPAQLWTYTRALEHHHHHH | failed
MASEHHEALNLYAVRVARGEGVKQDFARAASLFRRADRCGFNCEPVYDDMVNDFRDKAFGMELVSSKRAFLKALRPETAEARCTVGEAFIGQGDADSLRTGRELLTSAATLGSGKAMYLLGVLCRDGKGVAANAERAFMWFSLAASCGFAKAESERVNAEGKLDDAGRTRAMQLAARWRRQYLAPVCLEHHHHHH | failed
